Reference: US20220298218A1 (ANTAG THERAPEUTICS, published 2022)
Where two headings read alike, the source gives them in different places. Where no end group is shown, it is not given here. The star is where a group is joined. C16 diacid = O=C(O)CCCCCCCCCCCCCCC(=O)*

B1: AT454 (peptide)
peptide: EGTFISDYSIAMDKIK(C16 diacid)QQDFVNWLLAQKGKKNDWKHNIT-OH
modifications: N-terminus assumed
SMILES: CC[C@H](C)[C@H](NC(=O)[C@H](CO)NC(=O)[C@H](Cc1ccc(O)cc1)NC(=O)[C@H](CC(=O)O)NC(=O)[C@H](CO)NC(=O)[C@@H](NC(=O)[C@H](Cc1ccccc1)NC(=O)[C@@H](NC(=O)CNC(=O)[C@@H](N)CCC(=O)O)[C@@H](C)O)[C@@H](C)CC)C(=O)N[C@@H](C)C(=O)N[C@@H](CCSC)C(=O)N[C@@H](CC(=O)O)C(=O)N[C@@H](CCCCN)C(=O)N[C@H](C(=O)N[C@@H](CCCCNC(=O)CCCCCCCCCCCCCCC(=O)O)C(=O)N[C@@H](CCC(N)=O)C(=O)N[C@@H](CCC(N)=O)C(=O)N[C@@H](CC(=O)O)C(=O)N[C@@H](Cc1ccccc1)C(=O)N[C@H](C(=O)N[C@@H](CC(N)=O)C(=O)N[C@@H](Cc1c[nH]c2ccccc12)C(=O)N[C@@H](CC(C)C)C(=O)N[C@@H](CC(C)C)C(=O)N[C@@H](C)C(=O)N[C@@H](CCC(N)=O)C(=O)N[C@@H](CCCCN)C(=O)NCC(=O)N[C@@H](CCCCN)C(=O)N[C@@H](CCCCN)C(=O)N[C@@H](CC(N)=O)C(=O)N[C@@H](CC(=O)O)C(=O)N[C@@H](Cc1c[nH]c2ccccc12)C(=O)N[C@@H](CCCCN)C(=O)N[C@@H](Cc1c[nH]cn1)C(=O)N[C@@H](CC(N)=O)C(=O)N[C@H](C(=O)N[C@H](C(=O)O)[C@@H](C)O)[C@@H](C)CC)C(C)C)[C@@H](C)CC
B2: AT363 (peptide)
peptide: EGTFISDYSIAMDKIK(C16 diacid)QQDFVNWLLAQKGKKNDWKHNITQ-OH
modifications: N-terminus assumed
SMILES: CC[C@H](C)[C@H](NC(=O)[C@H](CO)NC(=O)[C@H](Cc1ccc(O)cc1)NC(=O)[C@H](CC(=O)O)NC(=O)[C@H](CO)NC(=O)[C@@H](NC(=O)[C@H](Cc1ccccc1)NC(=O)[C@@H](NC(=O)CNC(=O)[C@@H](N)CCC(=O)O)[C@@H](C)O)[C@@H](C)CC)C(=O)N[C@@H](C)C(=O)N[C@@H](CCSC)C(=O)N[C@@H](CC(=O)O)C(=O)N[C@@H](CCCCN)C(=O)N[C@H](C(=O)N[C@@H](CCCCNC(=O)CCCCCCCCCCCCCCC(=O)O)C(=O)N[C@@H](CCC(N)=O)C(=O)N[C@@H](CCC(N)=O)C(=O)N[C@@H](CC(=O)O)C(=O)N[C@@H](Cc1ccccc1)C(=O)N[C@H](C(=O)N[C@@H](CC(N)=O)C(=O)N[C@@H](Cc1c[nH]c2ccccc12)C(=O)N[C@@H](CC(C)C)C(=O)N[C@@H](CC(C)C)C(=O)N[C@@H](C)C(=O)N[C@@H](CCC(N)=O)C(=O)N[C@@H](CCCCN)C(=O)NCC(=O)N[C@@H](CCCCN)C(=O)N[C@@H](CCCCN)C(=O)N[C@@H](CC(N)=O)C(=O)N[C@@H](CC(=O)O)C(=O)N[C@@H](Cc1c[nH]c2ccccc12)C(=O)N[C@@H](CCCCN)C(=O)N[C@@H](Cc1c[nH]cn1)C(=O)N[C@@H](CC(N)=O)C(=O)N[C@H](C(=O)N[C@H](C(=O)N[C@@H](CCC(N)=O)C(=O)O)[C@@H](C)O)[C@@H](C)CC)C(C)C)[C@@H](C)CC
B3: AT364 (peptide)
peptide: EGTFISDYSIAMDKIK(C16 diacid)QQDFVNWLLAQKGPSSGAPPPS-OH
modifications: N-terminus assumed
SMILES: CC[C@H](C)[C@H](NC(=O)[C@H](CO)NC(=O)[C@H](Cc1ccc(O)cc1)NC(=O)[C@H](CC(=O)O)NC(=O)[C@H](CO)NC(=O)[C@@H](NC(=O)[C@H](Cc1ccccc1)NC(=O)[C@@H](NC(=O)CNC(=O)[C@@H](N)CCC(=O)O)[C@@H](C)O)[C@@H](C)CC)C(=O)N[C@@H](C)C(=O)N[C@@H](CCSC)C(=O)N[C@@H](CC(=O)O)C(=O)N[C@@H](CCCCN)C(=O)N[C@H](C(=O)N[C@@H](CCCCNC(=O)CCCCCCCCCCCCCCC(=O)O)C(=O)N[C@@H](CCC(N)=O)C(=O)N[C@@H](CCC(N)=O)C(=O)N[C@@H](CC(=O)O)C(=O)N[C@@H](Cc1ccccc1)C(=O)N[C@H](C(=O)N[C@@H](CC(N)=O)C(=O)N[C@@H](Cc1c[nH]c2ccccc12)C(=O)N[C@@H](CC(C)C)C(=O)N[C@@H](CC(C)C)C(=O)N[C@@H](C)C(=O)N[C@@H](CCC(N)=O)C(=O)N[C@@H](CCCCN)C(=O)NCC(=O)N1CCC[C@H]1C(=O)N[C@@H](CO)C(=O)N[C@@H](CO)C(=O)NCC(=O)N[C@@H](C)C(=O)N1CCC[C@H]1C(=O)N1CCC[C@H]1C(=O)N1CCC[C@H]1C(=O)N[C@@H](CO)C(=O)O)C(C)C)[C@@H](C)CC
B4: AT365 (peptide)
peptide: TFISDYKIAMDKIHQQDFVNWLLAQKGKK
HELM: PEPTIDE1{T.F.I.S.D.Y.K.I.A.M.D.K.I.H.Q.Q.D.F.V.N.W.L.L.A.Q.K.G.K.K}|PEPTIDE2{[O=C(O)CCCCCCCCCCCCCCC(=O)[*:2]].[gGlu]}$PEPTIDE1,PEPTIDE2,7:R3-2:R2$$$V2.0; N-terminus assumed
SMILES: CC[C@H](C)[C@H](NC(=O)[C@H](CCCCNC(=O)CC[C@H](NC(=O)CCCCCCCCCCCCCCC(=O)O)C(=O)O)NC(=O)[C@H](Cc1ccc(O)cc1)NC(=O)[C@H](CC(=O)O)NC(=O)[C@H](CO)NC(=O)[C@@H](NC(=O)[C@H](Cc1ccccc1)NC(=O)[C@@H](N)[C@@H](C)O)[C@@H](C)CC)C(=O)N[C@@H](C)C(=O)N[C@@H](CCSC)C(=O)N[C@@H](CC(=O)O)C(=O)N[C@@H](CCCCN)C(=O)N[C@H](C(=O)N[C@@H](Cc1c[nH]cn1)C(=O)N[C@@H](CCC(N)=O)C(=O)N[C@@H](CCC(N)=O)C(=O)N[C@@H](CC(=O)O)C(=O)N[C@@H](Cc1ccccc1)C(=O)N[C@H](C(=O)N[C@@H](CC(N)=O)C(=O)N[C@@H](Cc1c[nH]c2ccccc12)C(=O)N[C@@H](CC(C)C)C(=O)N[C@@H](CC(C)C)C(=O)N[C@@H](C)C(=O)N[C@@H](CCC(N)=O)C(=O)N[C@@H](CCCCN)C(=O)NCC(=O)N[C@@H](CCCCN)C(=O)N[C@@H](CCCCN)C(=O)O)C(C)C)[C@@H](C)CC
B5: AT366 (peptide)
peptide: TFISDYKIAMDKIHQQDFVNWLLAQKGKKNDW
HELM: PEPTIDE1{T.F.I.S.D.Y.K.I.A.M.D.K.I.H.Q.Q.D.F.V.N.W.L.L.A.Q.K.G.K.K.N.D.W}|PEPTIDE2{[O=C(O)CCCCCCCCCCCCCCC(=O)[*:2]].[gGlu]}$PEPTIDE1,PEPTIDE2,7:R3-2:R2$$$V2.0; N-terminus assumed
SMILES: CC[C@H](C)[C@H](NC(=O)[C@H](CCCCNC(=O)CC[C@H](NC(=O)CCCCCCCCCCCCCCC(=O)O)C(=O)O)NC(=O)[C@H](Cc1ccc(O)cc1)NC(=O)[C@H](CC(=O)O)NC(=O)[C@H](CO)NC(=O)[C@@H](NC(=O)[C@H](Cc1ccccc1)NC(=O)[C@@H](N)[C@@H](C)O)[C@@H](C)CC)C(=O)N[C@@H](C)C(=O)N[C@@H](CCSC)C(=O)N[C@@H](CC(=O)O)C(=O)N[C@@H](CCCCN)C(=O)N[C@H](C(=O)N[C@@H](Cc1c[nH]cn1)C(=O)N[C@@H](CCC(N)=O)C(=O)N[C@@H](CCC(N)=O)C(=O)N[C@@H](CC(=O)O)C(=O)N[C@@H](Cc1ccccc1)C(=O)N[C@H](C(=O)N[C@@H](CC(N)=O)C(=O)N[C@@H](Cc1c[nH]c2ccccc12)C(=O)N[C@@H](CC(C)C)C(=O)N[C@@H](CC(C)C)C(=O)N[C@@H](C)C(=O)N[C@@H](CCC(N)=O)C(=O)N[C@@H](CCCCN)C(=O)NCC(=O)N[C@@H](CCCCN)C(=O)N[C@@H](CCCCN)C(=O)N[C@@H](CC(N)=O)C(=O)N[C@@H](CC(=O)O)C(=O)N[C@@H](Cc1c[nH]c2ccccc12)C(=O)O)C(C)C)[C@@H](C)CC

Assays:
human GIP receptor [1] = biological target: T1, human GIP receptor (human, UniProt P48546 22-466); experiment: cell-based or functional assay
T1 sequence (looked up): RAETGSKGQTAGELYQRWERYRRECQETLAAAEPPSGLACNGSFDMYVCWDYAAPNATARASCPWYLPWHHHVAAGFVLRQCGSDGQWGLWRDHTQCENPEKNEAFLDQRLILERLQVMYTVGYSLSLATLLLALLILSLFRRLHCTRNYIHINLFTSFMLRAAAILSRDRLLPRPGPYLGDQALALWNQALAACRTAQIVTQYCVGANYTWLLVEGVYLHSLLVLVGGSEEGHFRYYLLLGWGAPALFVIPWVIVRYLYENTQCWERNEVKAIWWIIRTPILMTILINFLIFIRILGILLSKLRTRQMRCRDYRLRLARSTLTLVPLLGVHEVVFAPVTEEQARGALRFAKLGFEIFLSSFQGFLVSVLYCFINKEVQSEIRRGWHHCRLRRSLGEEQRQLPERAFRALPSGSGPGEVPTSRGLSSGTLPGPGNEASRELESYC

human GIP receptor [2] = biological target: T1, human GIP receptor; experiment: cell-based or functional assay; remark: listed apart in the source

Binder	cAMP agonism Emax (human GIP receptor [1])	cAMP antagonism (human GIP receptor [1])	cAMP antagonism % inhib (human GIP receptor [1])	cAMP antagonism log (human GIP receptor [1])	cAMP agonism % Emax (human GIP receptor [2])	cAMP antagonism (human GIP receptor [2])	cAMP antagonism % inhib (human GIP receptor [2])	cAMP antagonism pIC50 (human GIP receptor [2])
B1	8.9	54 nM	82%	-7.3 log M	0%	6.81 nM	84%	8.2
B2	7	5 nM	82%	-8.3 log M	0%	12.6 nM	90%	7.9
B3	–	1 nM	100%	-8.9 log M	0%	13.8 nM	87%	7.9
B4	–	6 nM	100%	-8.2 log M	0%	13.6 nM	100%	7.9
B5	–	3 nM	100%	-8.5 log M	0%	17.8 nM	100%	7.8
